According to the supplement of paper PMC10724198:
± gives the standard deviation of the averaged measurements.

System: Saccharomyces cerevisiae
Assay: protein stability index of tFT-peptide fusion (C-terminal peptide) (PSI (0-1 scale)); higher = more stable (slower turnover)
Details: genetic background: wild type; temperature: 30 C
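Further: PSI is a weighted mean of sequencing reads over stability bins, variants kept only with over 10 reads, mCherry proximal and sfGFP distal, peptide attached via GGGS linker.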

| Sequence | protein stability index |
| --- | --- |
| QRCWSRKGVNSL | 0.67 ± 0.025 |
| PLPRPRHHEPNS | 0.75 ± 0.044 |
| GAGASEGEPMED | 0.7 ± 0.046 |
| QGVGSHIPCGTP | 0.64 ± 0.023 |
| SLLRSPSLPQSN | 0.634 ± 0.095 |
| GWGRGGFRVVVG | 0.712 ± 0.02 |
| PLPPPSGLLSRL | 0.902 ± 0.047 |
| RLPPLFPPPPPC | 0.709 ± 0.038 |
| INKKETKKNKIK | 0.612 ± 0.073 |
| QKQKKKINIEKR | 0.731 ± 0.017 |
| SVPVLLLSILSP | 0.542 ± 0.013 |
| QEHLSFVATARY | 0.73 ± 0.1 |
| FRASLPRVPFSS | 0.695 ± 0.11 |
| GIKKNKIKKKKI | 0.624 ± 0.054 |
| KKKKKIKKKHNK | 0.6859 ± 0.001 |
| RRRREKEKRSQE | 0.734 ± 0.14 |
| GQEAGRERNNWQ | 0.694 ± 0.011 |
| FRIFGFLVCPIM | 0.6257 ± 0.0038 |
| CSERGQVCAVVY | 0.553 ± 0.066 |
| PPPPPPPSLLLP | 0.828 ± 0.041 |
| NSGSQSQDKQER | 0.658 ± 0.013 |
| QLRYVGRSISRM | 0.659 ± 0.037 |
| LAKVNSLLGFSK | 0.734 ± 0.037 |
| PPLPPPRYLPPT | 0.7124 ± 0.0027 |
| LPPGFPYLSQLP | 0.666 ± 0.052 |

| Sequence | protein stability index |
| --- | --- |
| WVFRHSTMNNEN | 0.672 ± 0.094 |
| GKYHIFNPNPKA | 0.685 ± 0.012 |
| QKTKEKKKKKRE | 0.708 ± 0.064 |
| EAKKNNIVEKQR | 0.681 ± 0.015 |
| KRLCTYRMIGSL | 0.521 ± 0.0089 |
| VCSLTFFGLCRP | 0.69 ± 0.025 |
| LESEDDRKLSLL | 0.659 ± 0.011 |
| RTKNMRRIKEKG | 0.688 ± 0.046 |
| ALPPLLLLPASP | 0.691 ± 0.0093 |
| PPAPLPAPRLAL | 0.709 ± 0.036 |
| APAPSPPPPPPD | 0.562 ± 0.037 |
| KKESNFVKKKEI | 0.741 ± 0.024 |
| CYIFFFSRELFY | 0.5685 ± 0.0045 |
| FLPFRPFPPFSA | 0.621 ± 0.0064 |
| SFPPPLPPPLHP | 0.721 ± 0.06 |
| LPPPSPPPPPSP | 0.68 ± 0.028 |
| SLLHSIPSSPPF | 0.729 ± 0.041 |
| RGGWGGYRGGVP | 0.757 ± 0.021 |
| ALQVKWRGCLRF | 0.733 ± 0.099 |
| PPLPSAPSTYPA | 0.634 ± 0.012 |
| CPPPPPPPRPPP | 0.639 ± 0.0095 |
| RYVVTVQGSGGE | 0.688 ± 0.045 |
| IIGVKNEGRGRE | 0.724 ± 0.089 |
| MCGENVSWSCRS | 0.685 ± 0.038 |
| VYRIAEENRRWV | 0.738 ± 0.12 |

| Sequence | protein stability index |
| --- | --- |
| APPQFPLTPPPP | 0.647 ± 0.011 |
| GGRIITIWNRKM | 0.578 ± 0.069 |
| RSCGCNGPGRSP | 0.749 ± 0.08 |
| KITLKSNKTTDN | 0.741 ± 0.018 |
| SRSPPRSGVPPL | 0.716 ± 0.032 |
| SMYHSCTFRTTV | 0.586 ± 0.021 |
| SRRRIENNKTEN | 0.695 ± 0.015 |
| VGPRGFYSFVGG | 0.665 ± 0.014 |
| PLPPPPLLALCS | 0.531 ± 0.02 |
| WTAITDRRSRPD | 0.616 ± 0.063 |
| FFVVAPSPSPRL | 0.761 ± 0.0073 |
| LPASPGSVPFLF | 0.716 ± 0.084 |
| PPPTAPPTTTTR | 0.696 ± 0.055 |
| CVWKWFSFSGGG | 0.69 ± 0.021 |
| RTGLLLLVQDFR | 0.703 ± 0.018 |
| VVYWGFVLGFGA | 0.582 ± 0.055 |
| CLGLVSLSGGAR | 0.712 ± 0.073 |
| VGGGAVRAWGLR | 0.688 ± 0.028 |
| WRCAGVGGVGGG | 0.708 ± 0.012 |
| GRSRGEGVRRNH | 0.583 ± 0.042 |
| SAPQPPFPFPPS | 0.696 ± 0.0093 |
| VCICDRLASRDV | 0.733 ± 0.067 |
| KKKKKKKKKKTR | 0.6407 ± 0.0016 |
| KKQKKKKSTKRN | 0.722 ± 0.038 |
| GSDHIRQRNRME | 0.716 ± 0.025 |

| Sequence | protein stability index |
| --- | --- |
| LVRDGQSHSVWN | 0.655 ± 0.098 |
| GLLYHIRVRSRG | 0.66 ± 0.006 |
| RGSPCPQRAALH | 0.7 ± 0.035 |
| RQYARKKKKVRN | 0.683 ± 0.025 |
| WCECGVWGGLWG | 0.719 ± 0.021 |
| SAAVDSPIFPSS | 0.6916 ± 0.00075 |
| GVRRSRAARVRK | 0.777 ± 0.18 |
| LKRDLGGTSTRG | 0.6615 ± 0.0057 |
| QRRRQEKRKKQD | 0.654 ± 0.077 |
| SWGDVGSWLGGV | 0.663 ± 0.0068 |
| AVSESSRRTQFF | 0.7039 ± 0.0025 |
| GTGERHIASEEK | 0.728 ± 0.013 |
| RSGRGRRGVGWV | 0.655 ± 0.038 |
| PPRGPPPPPADP | 0.7 ± 0.022 |
| CVFLGRMSFLAF | 0.602 ± 0.03 |
| SPRLPPPPPLPP | 0.651 ± 0.11 |
| LETETKKPQNQK | 0.724 ± 0.11 |
| VSLSPVFLGFYR | 0.706 ± 0.024 |
| RSPGSVSVGGVV | 0.615 ± 0.021 |
| PPLPPAPLPLPT | 0.639 ± 0.051 |
| GSRALDSPSHCS | 0.74 ± 0.023 |
| CCRICCCLLGTH | 0.658 ± 0.032 |
| PGSTCWLFEFLS | 0.711 ± 0.07 |
| KSGVWLWGGGGG | 0.724 ± 0.032 |
| PPPPPPLPPPPL | 0.671 ± 0.019 |

| Sequence | protein stability index |
| --- | --- |
| CPDFSSSLTFFL | 0.706 ± 0.014 |
| SGEKKPTKGTRT | 0.57 ± 0.055 |
| ENRNKSYEISRP | 0.7015 ± 0.0052 |
| RKEETINKESRR | 0.742 ± 0.032 |
| PFPFSLPSPPLP | 0.551 ± 0.14 |
| LRPSPGYRLGIH | 0.791 ± 0.1 |
| VSLLSLRAFYKL | 0.667 ± 0.05 |
| LLAFRTVSVGVL | 0.5212 ± 0.0014 |
| LHGASLCVPPSP | 0.5205 ± 0.0013 |
| PPPPRPLPTSRP | 0.689 ± 0.012 |
| CCLNHIFECLTL | 0.7012 ± 0.0066 |
| TPPCACTPPRAP | 0.686 ± 0.081 |
| PLTTIPSPNSLE | 0.666 ± 0.032 |
| EGRSVWVVGRAV | 0.652 ± 0.045 |
| PPRPPPPRPPPL | 0.742 ± 0.028 |
| PIPAPFFLAPPL | 0.731 ± 0.06 |
| TLTTVLSPHSHR | 0.716 ± 0.0073 |
| ITVFRAEVRTKK | 0.6846 ± 0.0054 |
| NVYRYSWYCSEF | 0.728 ± 0.088 |
| GGRGWVGEMGGR | 0.784 ± 0.053 |
| AHVLQRVRLLSR | 0.618 ± 0.023 |
| GAKGRGKERRGK | 0.666 ± 0.051 |
| TGPSLDRALLDL | 0.6412 ± 0.002 |
| RPPAVVHLQPFY | 0.7016 ± 0.0064 |
| CVVAISGLSHFL | 0.623 ± 0.015 |

| Sequence | protein stability index |
| --- | --- |
| HLPASLHLDYSI | 0.675 ± 0.043 |
| GYFHADYIPLSY | 0.7474 ± 0.0029 |
| VGSFVGSREGVW | 0.613 ± 0.029 |
| LAAWQPTSYASV | 0.592 ± 0.092 |
| PPSPPPPYPAPP | 0.679 ± 0.015 |
| VHSGKGRQAKER | 0.715 ± 0.048 |
| AFASVLPSSLSS | 0.641 ± 0.085 |
| GGSRGGRWGLGE | 0.746 ± 0.087 |
| EIKGTQRKGGKR | 0.726 ± 0.055 |
| SLAVDVRVSWEI | 0.704 ± 0.017 |
| YPGPFTGCSKIQ | 0.676 ± 0.069 |
| FPYLLCPLFPWP | 0.665 ± 0.015 |
| LPRALLLHGHRP | 0.771 ± 0.067 |
| HSPHISAPPLPY | 0.588 ± 0.024 |
| PPRPPPPPPAPL | 0.688 ± 0.019 |
| QSAAPISTPSLC | 0.694 ± 0.012 |
| SFVGGKLRTEYS | 0.71 ± 0.068 |
| PSCPAPPAARPL | 0.74 ± 0.11 |
| WVSMDFTGLVNG | 0.628 ± 0.015 |
| DHLQGRPDITDI | 0.72 ± 0.09 |
| RTSPRMAPLRTH | 0.713 ± 0.067 |
